Experimental data taken from PMC3056017.

Target: truncated recombinant mOGT (C-654) (human)

B1: Peptide (…) (peptide)
peptide: YSDSPSTST
km for the peptide in the coupled enzyme assay of OGT transglycosylation (double-reciprocal plot; peptide 0.05 to 0.5 mM, UDP-GlcNAc held at 0.5 mM): 0.16 mM
